Read-outs that look alike come from different tables or passages of the source.
Target: bFGF (basic fibroblast growth factor) (UniProt P09038)
Sequence (P09038 143-288): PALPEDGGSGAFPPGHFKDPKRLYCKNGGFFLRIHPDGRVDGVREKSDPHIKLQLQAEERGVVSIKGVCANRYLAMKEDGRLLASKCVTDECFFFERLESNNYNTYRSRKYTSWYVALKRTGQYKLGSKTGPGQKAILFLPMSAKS

GGGCTTTGTAAAACCCCGC [225T3N-PEG-3400]
Kd (3'-amino-modifier C7 conjugated to PEG 3400 [3' end after position 19: NN = non-nucleotide 3'-amino-modifier C7 and PEG 3400, left out], binding assay with 5'-32P-labeled conjugate, assay type not stated): 1 nM

GGGCTTTGTAAAACCCCGC [225T3]
Kd (reference ligand, same affinity as PEG and cholesterol conjugates, binding assay type not stated): 1 nM

GGGCTTTGTAAAACCCCGC [225t3-Chol]
Kd (3'-tetraethyleneglycol cholesterol, binding assay with 5'-32P-labeled conjugate, assay type not stated): 1 nM
